Measured values as given in publication PMC8457756.

Assays:
Experiment in all cases: EMSA
Conditions in all cases: EMSA: 0.5 uM dsDNA probe, semi-pure TF titrated, PBS + NP40, 10 uL; 6% polyacrylamide gel, 0.5x TBE, 100 V 1 h, room temperature running buffer; pH and …
[1] = test system: TetR_0692 (Clostridium thermocellum DSM 1313)
[2] = test system: GntR_1482 (Clostridium thermocellum DSM 1313)
[3] = test system: GlyR2 (Clostridium thermocellum DSM 1313)
[4] = test system: Rex_2471 (Clostridium thermocellum DSM 1313)
[5] = test system: BlaI_1845 (Clostridium thermocellum DSM 1313)

“TAAGCAGGGATATGACCACGTGGTCACCGTCCTCTG (double strand) [TetR_0692 test oligo]” was tested, and the binding signal (% probe shifted) [1] was > 70.

With “TAATTGGATCTTTGTTAATTGCAGTTTT (double strand) [GntR_1482 negative oligo]” the binding signal (% probe shifted) [2] was < 10.

In the case of “TATAGCACCGGTAACATTACAAATCATAGAAT (double strand) [GlyR2 test oligo]”, the binding signal (% probe shifted) [3] is reported as > 70.

In the case of “ATTATTTTATTTTGTTATATTTTTAACAAAAAAATTATT (double strand) [Rex_2471 test oligo]”, the binding signal (% probe shifted) [4] is reported as > 70.

With “ACCCCTGATTATGACAACATGACAGTAACAATCCGG (double strand) [GntR_1482 test oligo]” the binding signal (% probe shifted) [2] was > 70.

“TGATATGGGGTGTTTGCTGTTTTTGCC (double strand) [negative oligo 27 bp]” was tested, and the binding signal (% probe shifted) [1] was < 10, the binding signal (% probe shifted) [3] was < 10 and the binding signal (% probe shifted) [5] was < 10.

For “GACCATAACAATAGTCCAAGTTCATCT (double strand) [BlaI_1845 test oligo]”, the binding signal (% probe shifted) [5] was > 70.

With “CAGGATGTAATGGCTTGTCGTCAGACCGGAG (double strand) [Rex_2471 negative oligo]” the binding signal (% probe shifted) [4] was < 10.
